Experiment [1] addresses T1, TAT-D2pep[K211-T225] peptide (UniProt P14416 211-225).
T1 construct: dopamine D2 receptor, residues K211-T225; also called D2 [K211-T225]
Briefly: SPR; TAT-D2pep amine-coupled to carboxymethylated dextran chip; mouse GST-Disc1-L100PNT at 25-400 nM, GST-DISC1NT at 100 nM-1.6 uM; 25 °C; TBS-T pH 7.4; 50 ul/min; association 180 s, dissociation 300 s; KD from association and dissociation rates. Particulars: both partners purified. A general note: In SPR one partner is held on a chip, and binding of the other changes the refractive index at the surface.

Experiment [2] deals with T1, TAT-D2pep[K211-T225] peptide. Nature of the experiment: SPR; TAT-D2pep amine-coupled to carboxymethylated dextran chip (600 RU); human GST-DISC1NT or R264Q flowed at 0-4.0 uM; 25 °C; TBS-T (150 mM NaCl, 1 mM CaCl2, 1 mM MgCl2, 10 mM Tris pH 7.4, 0.005% P-20); 50 ul/min; equilibrium analysis. Conditions: both partners purified.

One may read the Kd as a measure of binding affinity in units of concentration. Read a high Kd as lower affinity.

B1: GST-DISC1NT (mouse, wild type) (domain or fragment)
chain: MQGGGPRGAPIHSPSHGADSGHGLPPAVAPQRRRLTRRPGYMRSTAGSGIGFLSPAVGMPHPSSAGLTGQQSQHSQSKAGQCGLDPGSHCQASLVGKPFLKSSLVPAVASEGHLHPAQRSMRKRPVHFAVHSKNDSRQSERLTGSFKPGDSGFWQELLSSDSFKSLAPSLDAPWNKGSRGLKTVKPLASPALNGPADIASLPGFQDTFTSSFSFIQLSLGAAGERGEAEGCLPSREAEPLHQRPQEMAAEASSSDRPHGDPRHLWTFSLHAAPGLADLAQVTRSSSRQSECGTV
modifications: GST carrier omitted; limits not given, N-terminal head region taken from the UniProt feature 1-294
In experiment [1], B1 returned a Kd of 760 ± 20 nM.

B2: GST-Disc1-L100PNT (mouse) (domain or fragment)
chain: MQGGGPRGAPIHSPSHGADSGHGLPPAVAPQRRRLTRRPGYMRSTAGSGIGFLSPAVGMPHPSSAGLTGQQSQHSQSKAGQCGLDPGSHCQASLVGKPFPKSSLVPAVASEGHLHPAQRSMRKRPVHFAVHSKNDSRQSERLTGSFKPGDSGFWQELLSSDSFKSLAPSLDAPWNKGSRGLKTVKPLASPALNGPADIASLPGFQDTFTSSFSFIQLSLGAAGERGEAEGCLPSREAEPLHQRPQEMAAEASSSDRPHGDPRHLWTFSLHAAPGLADLAQVTRSSSRQSECGTV
modifications: GST carrier omitted; limits not given, N-terminal head region taken from the UniProt feature 1-294
B2 came in with a Kd in experiment [1] of 100 ± 2 nM.

B3: GST-DISC1NT (human, wild type) (domain or fragment)
chain: MPGGGPQGAPAAAGGGGVSHRAGSRDCLPPAACFRRRRLARRPGYMRSSTGPGIGFLSPAVGTLFRFPGGVSGEESHHSESRARQCGLDSRGLLVRSPVSKSAAAPTVTSVRGTSAHFGIQLRGGTRLPDRLSWPCGPGSAGWQQEFAAMDSSETLDASWEAACSDGARRVRAAGSLPSAELSSNSCSPGCGPEVPPTPPGSHSAFTSSFSFIRLSLGSAGERGEAEGCPPSREAESHCQSPQEMGAKAASLDGPHEDPRCLSRPFSLLATRVSADLAQAARNSSRPERDMH
modifications: GST carrier omitted; limits not given, N-terminal head region taken from the UniProt feature 1-292
The molecule B3 registered a Kd in experiment [2] of 653 ± 6 nM.

B4: GST-DISC1-NT R264Q (human) (domain or fragment)
chain: MPGGGPQGAPAAAGGGGVSHRAGSRDCLPPAACFRRRRLARRPGYMRSSTGPGIGFLSPAVGTLFRFPGGVSGEESHHSESRARQCGLDSRGLLVRSPVSKSAAAPTVTSVRGTSAHFGIQLRGGTRLPDRLSWPCGPGSAGWQQEFAAMDSSETLDASWEAACSDGARRVRAAGSLPSAELSSNSCSPGCGPEVPPTPPGSHSAFTSSFSFIRLSLGSAGERGEAEGCPPSREAESHCQSPQEMGAKAASLDGPHEDPRCLSQPFSLLATRVSADLAQAARNSSRPERDMH
modifications: GST carrier omitted; limits not given, N-terminal head region taken from the UniProt feature 1-292
For B4, the Kd in experiment [2] worked out at 243 ± 3 nM.

Values taken from publication PMC7271519, “The DISC1 R264Q variant increases affinity for the dopamine D2 receptor and increases GSK3 activity” (Molecular Brain, 2020).
